This test addresses FAS (CD95, APO-1) death receptor (human) (UniProt P25445). The test can be described thus: cell-based or functional assay.
Chain of UniProt P25445 (P25445 26-335): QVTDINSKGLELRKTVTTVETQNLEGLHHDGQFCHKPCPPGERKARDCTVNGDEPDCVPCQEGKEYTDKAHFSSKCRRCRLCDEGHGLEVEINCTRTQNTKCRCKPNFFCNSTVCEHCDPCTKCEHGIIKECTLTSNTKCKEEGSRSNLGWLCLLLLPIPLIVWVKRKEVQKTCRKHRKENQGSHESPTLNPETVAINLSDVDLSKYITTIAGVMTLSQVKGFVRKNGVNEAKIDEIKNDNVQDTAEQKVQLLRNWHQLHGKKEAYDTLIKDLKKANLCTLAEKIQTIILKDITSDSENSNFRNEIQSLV

In turn, “CH11, a FAS agonistic (stimulating) antibody (monoclonal mouse antibody, cat. no. 05-201; EMD Millipore)” displayed a clonogenic cell survival of SUM159: radiation dose to achieve a surviving fraction of 0.1 of 3.25 Gy and a clonogenic cell survival of SUM159 after irradiation: dose-modifying factor of 2.5.

For the origin of these results see US20170115293A1.
